“Also recorded” adds a separate entry of the source.
Assays:
[1] = target: T1, CHO cells expressing murine CD39 (Mus musculus, UniProt P55772); test: Antibody titration on CHO-moCD39 by flow cytometry; type: binding; settings: qualitative
T1 construct: expressed in transfected cells; host or cells: CHO
T1 sequence (P55772 1-510): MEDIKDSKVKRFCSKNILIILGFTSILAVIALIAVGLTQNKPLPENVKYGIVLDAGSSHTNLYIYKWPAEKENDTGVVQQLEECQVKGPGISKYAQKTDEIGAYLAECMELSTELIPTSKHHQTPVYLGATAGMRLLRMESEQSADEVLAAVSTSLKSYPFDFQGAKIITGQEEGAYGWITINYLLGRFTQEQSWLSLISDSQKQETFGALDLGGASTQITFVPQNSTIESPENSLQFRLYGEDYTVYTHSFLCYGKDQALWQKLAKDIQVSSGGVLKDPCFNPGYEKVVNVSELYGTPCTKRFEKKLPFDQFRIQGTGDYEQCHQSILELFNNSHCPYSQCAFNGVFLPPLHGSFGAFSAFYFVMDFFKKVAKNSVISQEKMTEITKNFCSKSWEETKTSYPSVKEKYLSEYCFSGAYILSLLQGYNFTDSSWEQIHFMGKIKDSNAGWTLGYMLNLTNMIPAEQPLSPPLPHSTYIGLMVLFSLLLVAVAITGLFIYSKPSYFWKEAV
Experimental: Antibody I-394 was tested in two repeated experiments for binding to CHO cells expressing human CD39, CHO cells expressing cynomolgus (Macaca fascicularis) CD39, CHO cells expressing murine CD39, and human Ramos lymphoma cells (ATCC™, reference CRL-1596). Cells were incubated with various concentration of unlabeled anti-CD39 antibody from 30 μg/ml to 5×10^−4 μg/ml, for 30 minutes at 4° C. After washes, cells were incubated with Goat anti-mouse H+L labeled secondary antibody for 30 min at 4° C.

[2] = target: T2, soluble recombinant human CD39 protein (Homo sapiens, UniProt P49961); test: Inhibition of the enzymatic activity of soluble CD39 (Cell Titer Glo, cell-free); type: biochemical
T2 construct: made in house; host or cells: CHO cells
T2 sequence (P49961 with tags, fused parts or gaps): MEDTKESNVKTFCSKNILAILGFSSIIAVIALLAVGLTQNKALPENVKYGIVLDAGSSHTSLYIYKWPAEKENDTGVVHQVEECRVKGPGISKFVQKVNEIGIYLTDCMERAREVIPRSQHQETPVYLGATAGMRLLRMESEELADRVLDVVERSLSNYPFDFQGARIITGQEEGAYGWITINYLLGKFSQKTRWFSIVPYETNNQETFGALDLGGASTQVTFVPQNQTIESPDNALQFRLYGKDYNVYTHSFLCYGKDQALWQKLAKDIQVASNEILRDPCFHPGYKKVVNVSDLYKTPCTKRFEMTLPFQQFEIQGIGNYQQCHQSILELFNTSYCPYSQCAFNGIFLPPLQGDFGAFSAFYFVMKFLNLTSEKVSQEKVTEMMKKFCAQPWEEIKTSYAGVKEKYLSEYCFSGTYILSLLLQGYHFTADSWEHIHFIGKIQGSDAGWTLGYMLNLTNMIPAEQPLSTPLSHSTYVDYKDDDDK
Experimental: The inhibition by antibodies of the enzymatic activity of soluble CD39 protein produced was evaluated using Cell Titer GIo™ (Promega, reference G7571) that allows assessment of ATP hydrolysis through use of a reagent that generates a luminescent signal proportional to the amount of ATP present. In this way, inhibition of the soluble-CD39-meidated ATP hydrolysis can be assessed. Briefly, dose ranges of anti-CD39 antibodies from 100 μg/ml to […] were incubated with 400 ng/ml of soluble recombinant human CD39 protein having the amino acid sequence described in the Methods section (SEQ ID NO: 44), for 1 h at 37° C. 20 μM ATP was added to the plates for 30 additional minutes at 37° C. before addition of CTG (Cell Titer Glo) reagent. Emitted light was quantified using an Enspire™ luminometer after a short incubation period of 5 min in the dark. Anti-CD39 antibody efficacy was determined by comparing emitted light in presence of antibody with ATP alone (maximal light emission) and ATP together with soluble CD39 protein (minimal light emission).

[3] = target: T3, CD39 expressed by Ramos human lymphoma cells (Homo sapiens, UniProt P49961); test: Inhibition of the enzymatic activity of cellular CD39 in Ramos cells; type: cell-based
T3 construct: cells that endogenously express CD39 at their surface; host or cells: Ramos
T3 sequence (P49961 1-510): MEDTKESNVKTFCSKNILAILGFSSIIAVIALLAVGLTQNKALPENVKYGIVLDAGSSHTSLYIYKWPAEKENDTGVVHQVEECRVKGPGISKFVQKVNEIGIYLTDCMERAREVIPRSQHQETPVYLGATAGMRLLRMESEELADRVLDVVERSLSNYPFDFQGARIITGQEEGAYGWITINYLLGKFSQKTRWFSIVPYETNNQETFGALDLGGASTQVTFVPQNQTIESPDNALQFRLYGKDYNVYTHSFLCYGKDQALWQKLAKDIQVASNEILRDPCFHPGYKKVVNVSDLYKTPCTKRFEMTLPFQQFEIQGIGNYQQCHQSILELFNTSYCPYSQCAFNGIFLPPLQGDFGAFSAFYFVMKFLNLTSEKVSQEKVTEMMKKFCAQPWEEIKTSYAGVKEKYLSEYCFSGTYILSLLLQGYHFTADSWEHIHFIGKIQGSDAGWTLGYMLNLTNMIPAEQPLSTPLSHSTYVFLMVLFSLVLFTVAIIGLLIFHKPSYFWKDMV
Experimental: The inhibition of the CD39 enzymatic activity in CD39-expressing cells by antibodies was evaluated using Cell Titer GIo™ (Promega, reference G7571) that allows assessment of ATP hydrolysis through use of a reagent that generates a luminescent signal proportional to the amount of ATP present. The assay was thus designed to permit assessment of the inhibition of ATP hydrolyzed by CD39 in the cell culture supernatant. Briefly, 5×10^4 Ramos human lymphoma cells, 5×10^3 human CD39−, cynomolgus CD39—and mouse CD39− expressing CHO cells, were incubated 1 hour at 37° C. with anti-CD39 antibodies from 30 μg/ml to 5×10^−4 μg/ml. Cells were then incubated with 20 μM ATP for 1 additional hour at 37° C. Plates were centrifuged for 2 min at 400 g and 50 μl cell supernatant are transferred in a luminescence microplate (white wells). 50 μl CellTiter-Glo™ Reagent (CTG) was added to the supernatant and emitted light was quantified after a 5 min incubation in the dark using a Enspire™ luminometer. Anti-CD39 antibody efficacy was determined by comparing emitted light in presence of antibody with ATP alone (maximal light emission) and ATP together with cells (minimal light emission).

- binding to cells expressing murine CD39 (CHO-moCD39) [1]: but not to cells expressing murine CD39
- inhibition maximum, soluble CD39 [2]: 74.9%
- potency ranking for inhibition of soluble CD39 ([2]; FIG. 2B, comparison of BY40, I-394, I-395, I-396): greatest potency
- inhibition maximum, cellular CD39 ([3]; Ramos cells): 81.6%
Substance: I-394: anti-CD39 antibody, VH SEQ ID NO: 6, VL SEQ ID NO: 7, human IgG1 Fc with L234A/L235E/G237A/A330S/P331S
- inhibition of the enzymatic (ATPase) activity of soluble CD39 protein ([2]; qualitative): strong inhibition of the enzymatic activity of soluble CD39; also recorded: inhibits the enzymatic activity of soluble CD39 protein
- potency at blocking CD39 enzymatic activity relative to other antibodies ([3]; Ramos cells): greater potency compared to all other antibodies tested
- blocking CD39 enzymatic activity in tumor (Ramos) cells ([3]; qualitative): highly potent at blocking CD39 enzymatic activity

Reference: patent publication US12202907B2, “Nucleic acids encoding and methods of producing proteins comprising antibody chains” (Innate Pharma, priority 2018, dated 2025)
